Measurements taken from the Human Domainome abundance scans (Beltran et al. 2025).
± gives the uncertainty stated by the source.

B1: Homeobox protein SIX3, residues 212 to 262; numbered along this chain, O95343 (parent)
chain: CFKERTRSLLREWYLQDPYPNPSKKRELAQATGLTPTQVGNWFKNRRQRDR

Variants of: B1
Experiment: abundance fitness (aPCA) (normalised: wild type 0, dead -1); higher = more abundant; growth selection in yeast, the domain comes from the species named
Conditions: Homo sapiens

Abundance fitness: each site, then its substitutions
N41: K 0.252 ± 0.093; G -0.55 ± 0.12; C -0.459 ± 0.17; P -0.614 ± 0.29; D -0.497 ± 0.2; H -0.168 ± 0.16; S -0.204 ± 0.1; M -0.286 ± 0.12; L -0.516 ± 0.12; R 0.142 ± 0.065; Q -0.402 ± 0.12; I -0.627 ± 0.24; A -0.496 ± 0.2; V -0.325 ± 0.12
A31: D -0.475 ± 0.12; V -0.169 ± 0.069; T -0.147 ± 0.063; P -0.892 ± 0.27; Q -0.023 ± 0.077; L 0.088 ± 0.065; I -0.148 ± 0.1; K -0.094 ± 0.094; M -0.087 ± 0.078; S -0.186 ± 0.06; C -0.296 ± 0.095; G -0.651 ± 0.044; N -0.506 ± 0.16; F -0.749 ± 0.18; W -0.326 ± 0.052; E -0.076 ± 0.048; H -0.062 ± 0.11; Y -0.349 ± 0.069
Q30: N 0.114 ± 0.09; G -0.166 ± 0.05; W -0.097 ± 0.072; A -0.19 ± 0.059; D 0.037 ± 0.084; S -0.044 ± 0.039; F -0.284 ± 0.065; I 0.228 ± 0.087; Y -0.314 ± 0.099; R -0.329 ± 0.05; V -0.163 ± 0.054; C -0.243 ± 0.039; P -0.93 ± 0.15; L -0.139 ± 0.045; H -0.149 ± 0.048; E -0.068 ± 0.094
T35: Y -0.826 ± 0.12; W -0.848 ± 0.17; L -0.778 ± 0.069; F -0.77 ± 0.37; H -0.763 ± 0.41; V -0.842 ± 0.05; S -0.044 ± 0.055; C -0.645 ± 0.12; K -0.726 ± 0.14; P -0.894 ± 0.15; Q -0.252 ± 0.21; M -0.715 ± 0.067; E -0.809 ± 0.16; N -0.259 ± 0.13; G -0.827 ± 0.063; D -0.697 ± 0.096; R -0.704 ± 0.045; A -0.861 ± 0.13
W42: D -0.722 ± 0.29; V -0.986 ± 0.078; F -0.764 ± 0.3; I -0.897 ± 0.42; Y -0.398 ± 0.05; P -1 ± 0.14; A -0.793 ± 0.052; C -0.901 ± 0.36; E -0.893 ± 0.098; K -0.871 ± 0.32; R -0.933 ± 0.079; T -0.461 ± 0.21; S -1.06 ± 0.27; G -0.85 ± 0.098; H -0.702 ± 0.34; Q -0.854 ± 0.083
E27: D -0.253 ± 0.16; P -0.785 ± 0.18; H -0.446 ± 0.3; R -0.573 ± 0.078; K 0.121 ± 0.1; F -0.276 ± 0.049; L -0.515 ± 0.079; Q -0.357 ± 0.16; M -0.373 ± 0.07; V -0.593 ± 0.095; C -0.819 ± 0.2; T -0.668 ± 0.2; I -0.486 ± 0.22; A -0.55 ± 0.09; N -0.947 ± 0.39; W -0.678 ± 0.083; S -0.322 ± 0.079
F43: S -0.837 ± 0.073; I -0.679 ± 0.47; R -0.774 ± 0.05; H -0.82 ± 0.28; V -1 ± 0.092; Q -0.861 ± 0.089; E -0.883 ± 0.16; N -0.621 ± 0.24; C -0.755 ± 0.096; A -0.96 ± 0.22; K -0.92 ± 0.16; M -0.782 ± 0.18; L -0.97 ± 0.15; T -0.951 ± 0.14; G -0.956 ± 0.11; D -0.816 ± 0.35; P -0.941 ± 0.14
T37: N -0.27 ± 0.12; W -0.441 ± 0.074; Q 0.211 ± 0.078; A -0.11 ± 0.072; G -0.126 ± 0.047; C -0.051 ± 0.094; D 0.326 ± 0.081; E 0.164 ± 0.065; R 0.014 ± 0.058; H -0.099 ± 0.074; V -0.091 ± 0.075; F -0.678 ± 0.19; I -0.184 ± 0.044; M -0.055 ± 0.091; P -0.416 ± 0.096; L -0.255 ± 0.045; S -0.186 ± 0.068
T32: Q -1.23 ± 0.39; D -0.96 ± 0.12; H 0.036 ± 0.29; V -0.257 ± 0.072; L -0.409 ± 0.072; I -0.591 ± 0.14; Y -1 ± 0.19; E -0.908 ± 0.061; C -0.026 ± 0.055; P -0.802 ± 0.2; G -0.903 ± 0.11; F -0.922 ± 0.26; R -0.87 ± 0.1; S -0.43 ± 0.059; W -0.821 ± 0.11; K -1.02 ± 0.18; M -0.59 ± 0.11; A -0.399 ± 0.079; N -0.637 ± 0.2
A29: C -0.588 ± 0.24; S -0.125 ± 0.084; L -0.911 ± 0.18; M -1.03 ± 0.19; D -0.93 ± 0.41; Q -0.897 ± 0.37; H -0.777 ± 0.34; W -0.704 ± 0.16; K -0.856 ± 0.24; G -0.468 ± 0.065; E -0.888 ± 0.16; R -1.11 ± 0.19; T -0.76 ± 0.26; P -0.911 ± 0.25
K25: N -0.344 ± 0.25; C -0.103 ± 0.097; G -0.579 ± 0.1; A -0.326 ± 0.057; L -0.061 ± 0.063; V -0.019 ± 0.044; Y -0.316 ± 0.1; W -0.334 ± 0.056; E 0.008 ± 0.079; R -0.177 ± 0.063; D -0.753 ± 0.062; T 0.133 ± 0.062; P -0.84 ± 0.067; Q -0.109 ± 0.11; S -0.478 ± 0.085; M 0.004 ± 0.09
P36: Q -0.235 ± 0.12; L -0.087 ± 0.062; F 0.184 ± 0.075; C -0.241 ± 0.051; W -0.536 ± 0.1; H -0.305 ± 0.13; G -0.596 ± 0.043; T -0.066 ± 0.072; N -0.815 ± 0.34; M 0.03 ± 0.074; E 0.066 ± 0.046; I -0.096 ± 0.11; R -0.307 ± 0.049; K -0.048 ± 0.074; D -0.638 ± 0.19; S -0.274 ± 0.07; A -0.226 ± 0.09
V39: T -0.573 ± 0.1; H -0.998 ± 0.32; E -0.96 ± 0.099; Q -0.78 ± 0.067; L -0.84 ± 0.08; A -0.829 ± 0.088; F -0.848 ± 0.25; P -0.972 ± 0.12; S -0.916 ± 0.083; K -0.945 ± 0.19; N -1.01 ± 0.24; Y -0.897 ± 0.28; G -0.731 ± 0.083; R -0.873 ± 0.064; D -0.893 ± 0.074; C -0.969 ± 0.37
Q38: I -0.733 ± 0.31; L -0.64 ± 0.052; K -0.886 ± 0.2; G -0.761 ± 0.1; D -0.937 ± 0.38; P -1.13 ± 0.18; S -0.676 ± 0.077; M -0.619 ± 0.09; F -0.663 ± 0.43; H -0.81 ± 0.23; N -0.728 ± 0.24; W -0.774 ± 0.081; R -0.802 ± 0.067; V -0.418 ± 0.058; T -0.43 ± 0.15; E -0.606 ± 0.19; C -0.393 ± 0.15; A -0.338 ± 0.068
L28: R -0.895 ± 0.091; Q -0.872 ± 0.11; H -0.778 ± 0.26; C -0.59 ± 0.045; S -0.833 ± 0.11; A -1.05 ± 0.27; T -0.876 ± 0.24; D -0.805 ± 0.22; M 0.029 ± 0.054; I -0.162 ± 0.14; W -0.572 ± 0.056; K -0.668 ± 0.095; N -0.99 ± 0.16; E -1.04 ± 0.28; Y 0.069 ± 0.095; V -0.147 ± 0.079; F -0.07 ± 0.067
K24: Y -0.709 ± 0.2; M -0.246 ± 0.15; W -0.896 ± 0.13; P -0.924 ± 0.14; I -0.072 ± 0.09; G -0.417 ± 0.068; Q -0.112 ± 0.093; T -0.097 ± 0.092; L -0.366 ± 0.084; H -0.219 ± 0.096; R -0.137 ± 0.047; S -0.193 ± 0.06; V -0.101 ± 0.053
R26: W -0.266 ± 0.066; H 0.047 ± 0.084; N 0.385 ± 0.1; K -0.01 ± 0.085; S -0.045 ± 0.042; E -0.002 ± 0.058; A 0.181 ± 0.056; G -0.209 ± 0.067; M -0.14 ± 0.11; C -0.044 ± 0.052; L 0.158 ± 0.064; T -0.091 ± 0.092; F -0.228 ± 0.065; Y -0.286 ± 0.13; Q 0.091 ± 0.09; P -0.889 ± 0.1; D -0.667 ± 0.32; V 0.047 ± 0.049
G33: S -0.555 ± 0.052; R -0.613 ± 0.057; H -0.542 ± 0.12; I -0.902 ± 0.25; P -0.746 ± 0.16; L -0.812 ± 0.057; C -0.643 ± 0.12; A -0.674 ± 0.1; E -0.915 ± 0.12; T -0.766 ± 0.17; D -0.412 ± 0.079; M -0.75 ± 0.11; F -0.774 ± 0.065; Y -0.978 ± 0.28; N 0.029 ± 0.12; V -0.779 ± 0.077; K -0.494 ± 0.073; Q -0.57 ± 0.087
L34: M -0.186 ± 0.093; F -0.823 ± 0.13; C -0.834 ± 0.093; P -0.75 ± 0.21; S -0.623 ± 0.089; I -0.445 ± 0.082; Q -0.634 ± 0.15; K -0.56 ± 0.089; V -0.881 ± 0.11; N -0.918 ± 0.18; R -0.847 ± 0.065; H -0.502 ± 0.33; A -0.72 ± 0.097; W -0.606 ± 0.097; D -0.798 ± 0.2; T -0.73 ± 0.21; Y -0.778 ± 0.14; G -0.72 ± 0.086
G40: N 0.131 ± 0.099; R 0.008 ± 0.048; F -0.858 ± 0.13; K 0.097 ± 0.05; Y -0.871 ± 0.23; S 0.006 ± 0.06; E -0.099 ± 0.049; T -0.183 ± 0.089; C -0.13 ± 0.085; H -0.122 ± 0.11; D -0.227 ± 0.062; L -0.731 ± 0.078; M -0.621 ± 0.12; A -0.146 ± 0.063; I -0.247 ± 0.15; V -0.6 ± 0.076; W -0.81 ± 0.052
